Measurements published in publication PMC8079274.

Target: KSR1 in KSR1+/+ mouse embryo fibroblasts (cells that overexpress KSR1) (UniProt Q61097)
Assay: proximity ligation; fixed serum-starved KSR1+/+ MEFs, anti-KSR1 with anti-pERK or anti-ERK antibodies, Duolink; vehicle or 40 μM CGS9343B for 16 h, then vehicle or 100 ng/ml EGF for 5 min; spots per cell, vehicle set to 1

Chain of KSR1 in KSR1+/+ mouse embryo fibroblasts (cells that overexpress KSR1) (Q61097 whole entry): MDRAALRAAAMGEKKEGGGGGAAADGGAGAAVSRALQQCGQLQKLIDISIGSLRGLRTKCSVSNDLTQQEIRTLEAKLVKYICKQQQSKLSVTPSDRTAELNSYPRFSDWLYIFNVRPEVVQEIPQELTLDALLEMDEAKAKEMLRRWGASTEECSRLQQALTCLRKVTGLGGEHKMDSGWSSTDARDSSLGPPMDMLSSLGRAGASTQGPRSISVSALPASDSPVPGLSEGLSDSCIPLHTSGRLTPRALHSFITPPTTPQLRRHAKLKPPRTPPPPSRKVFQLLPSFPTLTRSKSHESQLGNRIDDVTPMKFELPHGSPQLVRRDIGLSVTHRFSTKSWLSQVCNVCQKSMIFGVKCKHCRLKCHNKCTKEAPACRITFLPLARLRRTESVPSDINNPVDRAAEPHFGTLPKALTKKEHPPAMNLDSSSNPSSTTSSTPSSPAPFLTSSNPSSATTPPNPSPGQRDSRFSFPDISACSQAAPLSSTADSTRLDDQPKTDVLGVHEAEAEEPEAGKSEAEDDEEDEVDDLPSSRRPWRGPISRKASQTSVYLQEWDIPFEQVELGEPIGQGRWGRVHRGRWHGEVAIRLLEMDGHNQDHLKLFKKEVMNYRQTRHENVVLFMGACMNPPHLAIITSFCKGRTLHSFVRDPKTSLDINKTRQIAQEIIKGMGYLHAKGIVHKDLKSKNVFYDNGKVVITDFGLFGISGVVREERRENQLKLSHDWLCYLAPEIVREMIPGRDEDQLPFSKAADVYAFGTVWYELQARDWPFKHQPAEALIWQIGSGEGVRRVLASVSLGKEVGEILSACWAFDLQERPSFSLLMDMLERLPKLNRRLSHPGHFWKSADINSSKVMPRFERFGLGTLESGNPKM

fold change of PLA spots per cell, EGF against vehicle [fold] | Substance
4.36 | ERK (extracellular signal-regulated kinase), total ERK (from UniProt P63085 1-358) (natural protein)
6.2 | pERK (phosphorylated ERK) (from UniProt P63085 1-358) (natural protein)
